Experimental findings from paper PMC3467076 are described below.

In this series the target is T1, SNI1 (Arabidopsis thaliana, UniProt Q9SWA6 1-432).
T1 sequence: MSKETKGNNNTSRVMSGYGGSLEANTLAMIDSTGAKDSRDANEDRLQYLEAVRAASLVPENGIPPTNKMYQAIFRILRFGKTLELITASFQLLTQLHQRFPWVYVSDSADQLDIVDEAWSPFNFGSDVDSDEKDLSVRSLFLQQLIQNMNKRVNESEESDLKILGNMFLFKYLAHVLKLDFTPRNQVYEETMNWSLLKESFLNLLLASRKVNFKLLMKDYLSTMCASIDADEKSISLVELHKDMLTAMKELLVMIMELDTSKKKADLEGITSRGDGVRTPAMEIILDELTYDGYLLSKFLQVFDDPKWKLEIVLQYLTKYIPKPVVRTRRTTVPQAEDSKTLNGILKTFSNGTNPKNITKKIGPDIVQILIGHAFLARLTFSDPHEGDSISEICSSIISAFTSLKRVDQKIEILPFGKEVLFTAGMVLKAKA
In words: EMSA.

B1: E0-1-1 (dsDNA)
DNA 1: TAATAATGCTTAGTTATAAATTACT
DNA 2: AGTAATTTATAACTAAGCATTATTA
For the molecule B1, the binding result is reported as “no binding”.
